Data taken from publication doi:10.1101/2024.05.14.593897.

Target: T1, KBTBD4 (construct for structure determination) (human), Q9NVX7
T1 chain: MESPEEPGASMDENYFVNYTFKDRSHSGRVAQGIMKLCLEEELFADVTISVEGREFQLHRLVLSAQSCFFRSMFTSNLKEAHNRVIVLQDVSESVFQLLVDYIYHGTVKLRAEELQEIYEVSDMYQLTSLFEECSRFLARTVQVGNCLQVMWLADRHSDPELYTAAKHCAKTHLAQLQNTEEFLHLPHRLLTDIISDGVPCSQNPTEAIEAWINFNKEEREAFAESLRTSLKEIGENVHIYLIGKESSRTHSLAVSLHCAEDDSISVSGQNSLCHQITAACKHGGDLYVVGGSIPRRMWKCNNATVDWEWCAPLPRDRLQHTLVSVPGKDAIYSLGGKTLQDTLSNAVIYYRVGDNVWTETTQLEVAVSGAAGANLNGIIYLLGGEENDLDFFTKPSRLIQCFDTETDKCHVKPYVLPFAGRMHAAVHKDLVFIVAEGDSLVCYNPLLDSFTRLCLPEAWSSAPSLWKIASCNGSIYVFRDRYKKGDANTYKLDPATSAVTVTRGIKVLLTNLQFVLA
Assay: cryo-EM structure
Details: remark: other sources report otherwise

stoichiometry N: 2
B1: KBTBD4 (construct for structure determination), Q9NVX7-1 1-518 (natural protein)
chain: T1 chain
